± gives the uncertainty stated by the source.
Assay: self-splicing fitness, log relative to wild type (ln ratio); higher = more splicing; Tetrahymena group I intron in knt gene, E. coli kanamycin selection, DiMSum; sequences stand for … in CUCUCU…GGAGGGAAAAGUUAUCAGGCAUGCACCUGGUAGCUAGUCUUUAAACCAAUAGAUUGCAUCGGUUUAAAAGGCAAGACCGUCAAAUUGCGGGAAAGGGGUCAACAGCCGUUCAGUACCAAGUCUCAGGGGAAACUUUGAGAUGGCCUUGCAAAGGGUAUGGUAAUAAGCUGACGGACAUGGUCCUAACCACGCAGCCAAGUCCUAAGUCAACAGAUCUUCUGUUGAUAUGGAUGCAGUUCACAGACUAAAUGUCGGUCGGGGAAGAUGUAUUCUUCUCAUAAGAUAUAGUCGGACCUCUCCUUAAUGGGAGCUAGCGGAUGAAGUGAUGCAACACUGGAGCCGCUGGGAACUAAUUUGUAUGCGAAAGUAUAUUGAUUAGUUUUGGAGUACUCGUGGUCG
Method in brief: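 Colonies from six replicate transformations of E. coli BL21(DE3) were pooled and amplicon-sequenced on an Illumina HiSeq 2500. The library placed an intron with all eight P1ex-region nucleotides randomised inside the knt kanamycin-resistance gene on pET-22b(+), and cells grew overnight at 37°C or 30°C on LB agar with or without 25 μg/mL kanamycin (plus 100 μg/mL carbenicillin, 50 μM IPTG, 0.2% rhamnose). Fitness is the DiMSum error-weighted combination of wild-type-normalised replicate fold changes, kanamycin versus none.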

| Sequence | self-splicing fitness (ln) (37 °C) | self-splicing fitness (ln) (30 °C) |
| --- | --- | --- |
| UGGAAGCAAUAUUACGCUCU | -1.45 ± 0.32 | – |
| UGGAAGCAAUAUUACGGCGA | -0.28 ± 0.16 | -0.779 ± 0.12 |
| UGGAAGCAAUAUUACGGGCG | -0.0506 ± 0.11 | -0.122 ± 0.1 |
| UGGAAGCAAUAUUACGGGGG | -2.89 ± 0.49 | -2.52 ± 0.32 |
| UGGAAGCAAUAUUACGGGUC | -3.04 ± 0.38 | – |
| UGGAAGCAAUAUUACGGUUG | -0.621 ± 0.13 | -1.46 ± 0.1 |
| UGGAAGCAAUAUUACGUCUA | -0.741 ± 0.18 | -0.281 ± 0.15 |
| UGGAAGCAAUAUUACGUGCU | -1.7 ± 0.17 | -2.92 ± 0.19 |
| UGGAAGCAAUAUUACGUGUA | -0.482 ± 0.1 | -2.12 ± 0.099 |
| UGGAAGCAAUAUUACGUGUU | -2.7 ± 0.17 | -3.39 ± 0.16 |
| UGGAAGCAAUAUUACGUUCA | 0.00518 ± 0.092 | -0.654 ± 0.069 |
| UGGCAGCAAUAUUACGACAG | 0.224 ± 0.11 | -1.02 ± 0.087 |
| UGGCAGCAAUAUUACGACUG | -0.812 ± 0.1 | -1.01 ± 0.071 |
| UGGCAGCAAUAUUACGAGAU | – | -1.46 ± 0.21 |
| UGGCAGCAAUAUUACGAGGC | – | -2.12 ± 0.2 |
| UGGCAGCAAUAUUACGAGGU | -2.53 ± 0.3 | -3.29 ± 0.23 |
| UGGCAGCAAUAUUACGAGUA | -1.46 ± 0.13 | -1.75 ± 0.15 |
| UGGCAGCAAUAUUACGAUUC | -1.46 ± 0.32 | – |
| UGGCAGCAAUAUUACGAUUG | 0.135 ± 0.093 | -1.07 ± 0.074 |
| UGGCAGCAAUAUUACGCACU | 0.399 ± 0.094 | -0.473 ± 0.068 |
| UGGCAGCAAUAUUACGCGCA | 0.284 ± 0.15 | -0.259 ± 0.14 |
| UGGCAGCAAUAUUACGCUGG | -2.53 ± 0.29 | -3.47 ± 0.33 |
| UGGCAGCAAUAUUACGGCCA | -0.836 ± 0.45 | – |
| UGGCAGCAAUAUUACGGCUU | 0.316 ± 0.098 | -0.209 ± 0.075 |
| UGGCAGCAAUAUUACGGGAG | -1.15 ± 0.14 | -3.13 ± 0.21 |

| Sequence | self-splicing fitness (ln) (37 °C) | self-splicing fitness (ln) (30 °C) |
| --- | --- | --- |
| UGGCAGCAAUAUUACGGUGC | -2.79 ± 0.32 | -3.3 ± 0.23 |
| UGGCAGCAAUAUUACGUAAC | -2.16 ± 0.26 | -3.2 ± 0.22 |
| UGGCAGCAAUAUUACGUCAU | -2.67 ± 0.26 | -4.47 ± 0.33 |
| UGGCAGCAAUAUUACGUCCC | -0.074 ± 0.19 | 0.385 ± 0.14 |
| UGGCAGCAAUAUUACGUCGG | -0.268 ± 0.13 | -0.425 ± 0.097 |
| UGGCAGCAAUAUUACGUUCG | 0.283 ± 0.096 | -0.337 ± 0.068 |
| UGGGAGCAAUAUUACGCGAA | -1.67 ± 0.34 | -1.59 ± 0.23 |
| UGGGAGCAAUAUUACGCGGU | -3.8 ± 0.33 | -3.43 ± 0.24 |
| UGGGAGCAAUAUUACGGCUA | -0.59 ± 0.15 | -0.66 ± 0.21 |
| UGGGAGCAAUAUUACGGCUG | -2.31 ± 0.26 | -1.09 ± 0.19 |
| UGGGAGCAAUAUUACGGGGA | -2.9 ± 0.29 | -2.94 ± 0.32 |
| UGGGAGCAAUAUUACGGUCG | -0.961 ± 0.2 | -1.47 ± 0.12 |
| UGGGAGCAAUAUUACGGUGG | – | -2.67 ± 0.46 |
| UGGGAGCAAUAUUACGUAUU | -1.91 ± 0.28 | -2.76 ± 0.33 |
| UGGGAGCAAUAUUACGUCGA | -1.21 ± 0.28 | -1.85 ± 0.39 |
| UGGUAGCAAUAUUACGAAGG | -1.39 ± 0.24 | -2.95 ± 0.28 |
| UGGUAGCAAUAUUACGAGAC | -2.71 ± 0.43 | -1.69 ± 0.24 |
| UGGUAGCAAUAUUACGCACA | 0.436 ± 0.074 | -0.0584 ± 0.068 |
| UGGUAGCAAUAUUACGCCAG | -0.742 ± 0.3 | -1.16 ± 0.28 |
| UGGUAGCAAUAUUACGCCCG | -0.718 ± 0.17 | 0.0173 ± 0.14 |
| UGGUAGCAAUAUUACGCCUC | -2.03 ± 0.39 | -1.82 ± 0.39 |
| UGGUAGCAAUAUUACGCGCG | -0.0153 ± 0.25 | 0.0906 ± 0.2 |
| UGGUAGCAAUAUUACGCGUC | -2.52 ± 0.35 | -3.94 ± 0.43 |
| UGGUAGCAAUAUUACGCGUU | -1.32 ± 0.12 | -2.76 ± 0.13 |
| UGGUAGCAAUAUUACGCUCA | 0.26 ± 0.18 | -0.626 ± 0.14 |

Reference: the supplement of paper PMC7877785
